This is an account of results in patent WO2009104736A1 (dated 2009).

Test [1] addresses amyloid β 1-42 protein (Aβ 1-42) (UniProt P05067). Put plainly: SPR competition, Biacore J; Aβ 1-42 on a CM5 chip saturated with 3.4A10 (competitor), then 3.4A10 and 4G8 mixed 20:1. Details: unit not given here. A general note: In SPR one partner is held on a chip, and binding of the other changes the refractive index at the surface.
The target in the next test is T1, Aβ 25-35 (UniProt P05067 696-706).
T1 construct: domain: Aβ 25-35; Positions count on Aβ; also called product code 4309-v
T1 peptide (looked up): GSNKGAIIGLM
Put plainly: dot blot of peptides on nitrocellulose.

The next test addresses T2, Aβ 34-42 (UniProt P05067 705-713).
T2 construct: domain: Aβ 34-42; Positions count on Aβ
T2 peptide (looked up): LMVGGVVIA
Put plainly: dot blot of peptides on nitrocellulose.

Bounds are passed on as bounds.

amyloid β 1-42 protein (Aβ 1-42), sequence (P05067 672-713 limits assumed): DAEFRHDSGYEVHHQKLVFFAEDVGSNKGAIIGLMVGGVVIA

“mouse anti-human Aβ monoclonal antibody 4G8”: the enhanced reaction (response level) in test [1] is over 2000.

B1: monoclonal antibody 3.4A10 (antibody of Example 1) (antibody, V domains shown)
VH: EVQLLESGGGLVQPGGSRKLSCAASGFTFSSFGVHWFRQAPEKGLEWVAYISSGSSTIYYADTVKGRFTISRDNPKNTLFLQMASLRSEDTAMYYCAPYGSSPFPYWGQGTLVTVST
VL: ELQLTQSPASLAVSLGQRATISCRASESVDSYGYNFMHWYQQKPGQPPKLLIYLASNLESGVPARFSGSGSRTDFTLTIDPVEADDAATYYCQQNNEDPLTFGAGTKLELKR
notes: Mouse IgG2b from a hybridoma, purified from ascites; also called TAPIR antibody
Take B1: the binding result with Aβ 25-35 and with Aβ 34-42 was “no binding (tested: 1 μg/ml antibody)” throughout.
